Assay results taken from paper PMC314469, “Protein Interaction Networks by Proteome Peptide Scanning” (PLoS Biology, 2004).

T1: Boi1 SH3 (BOI1_YEAST), P38041
T1 chain: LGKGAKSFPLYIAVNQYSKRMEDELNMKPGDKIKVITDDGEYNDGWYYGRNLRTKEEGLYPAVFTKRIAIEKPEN

T2: Yfr024 SH3 (LSB3_YEAST), P43603
T2 chain: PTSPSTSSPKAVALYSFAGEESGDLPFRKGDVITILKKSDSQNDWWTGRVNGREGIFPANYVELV

T3: Boi2 SH3 (BOI2_YEAST), P39969
T3 chain: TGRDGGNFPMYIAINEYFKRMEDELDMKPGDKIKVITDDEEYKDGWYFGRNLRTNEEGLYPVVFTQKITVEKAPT

T4: Yhr016c SH3 (YSC84_YEAST), P32793
T4 chain: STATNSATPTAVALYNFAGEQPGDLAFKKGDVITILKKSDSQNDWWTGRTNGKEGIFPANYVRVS

T5: Rvs167 SH3 (RV167_YEAST), P39743
T5 chain: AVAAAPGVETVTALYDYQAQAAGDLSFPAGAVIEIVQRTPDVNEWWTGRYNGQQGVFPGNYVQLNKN


Assays:
Assay in all cases: SPOT array
[1] = target: T1, Boi1 SH3 (BOI1_YEAST), P38041
[2] = target: T2, Yfr024 SH3 (LSB3_YEAST), P43603
[3] = target: T3, Boi2 SH3 (BOI2_YEAST), P39969
[4] = target: T4, Yhr016c SH3 (YSC84_YEAST), P32793
[5] = target: T5, Rvs167 SH3 (RV167_YEAST), P39743

Row | Binder | normalised SPOT signal, Boehringer light units (BLU); mean over the file's lines of this peptide [1] | normalised SPOT signal, Boehringer light units (BLU); mean over the file's lines of this peptide [2] | normalised SPOT signal, Boehringer light units (BLU); mean over the file's lines of this peptide [3] | normalised SPOT signal, Boehringer light units (BLU); mean over the file's lines of this peptide [4] | normalised SPOT signal, Boehringer light units (BLU); mean over the file's lines of this peptide [5]
1 | ATRPSSPMRHKSIS [YAR019C 585-598] | 168 | 6110 | 302 | 1730 | 1180
2 | AMNPESPTRDQIFL [YMR012W 411-424] | 34.6 | 648 | 39.3 | 125 | 63
3 | ALVPFAPFKLLKDR [YHL047C 340-353] | 16.7 | 121 | 40.5 | 123 | 136
4 | ASMPRVPLKIVLKD [YIL078W 68-81] | 101 | 6880 | 282 | 690 | 581
5 | SDFPYDPFRVMRLK [YJL139C 225-238] | 330 | 231 | 33.6 | 245 | 42
6 | AVLPIEPMKIKGTT [YNL140C 149-162] | 98.3 | 605 | 37 | 191 | 39
7 | SDFPYDPFKVMRQN [YKR061W 225-238] | 41.4 | 33.2 | 40.1 | 119 | 11.8
8 | APAPLDPFKTGGNN [YBL007C 849-862] | 123 | 35.4 | 68.1 | 22.8 | 47.4
9 | SIIPPLPDKKVFQY [YJL036W 96-109] | 40.2 | 6960 | 49 | 174 | 22.3
10 | APLPPQPRKHDKTP [YBL105C 587-600] | 217 | 1150 | 57.8 | 372 | 52.6
11 | ANLPNRPKRGEGIN [YMR047C 1035-1048] | 145 | 6370 | 27.9 | 1230 | 39.8
12 | ARDPILPYRLVKDR [YHL040C 345-358] | 322 | 16800 | 46.6 | 4220 | 437
13 | ATVPSAPYRKQIIS [YAR002W 11-24] | 30.5 | 1890 | 53.7 | 718 | 145
14 | ATTPAIPTKSDEAE [YGR162W 364-377] | 70.8 | 166 | 42.2 | 0 | 86.1
15 | ASYPLTPRRYVPED [YLR244C 90-103] | 2830 | 6950 | 23400 | 4120 | 1380
16 | APTPPAPSRSEKLH [YBR108W 727-740] | 152 | 4690 | 16.8 | 448 | 49.2
17 | AQRPRGPQRGKDIK [YNL064C 104-117] | 119 | 576 | 73.2 | 112 | 78.6
18 | ASKPSVPPRNYFSK [YIL108W 577-590] | 1130 | 20100 | 44.5 | 9380 | 3860
19 | AMTPFSPRKSHINN [YNL269W 98-111] | 642 | 1860 | 884 | 256 | 422
20 | AVDPENPKKLASKF [YCR023C 384-397] | 74.5 | 0 | 53.1 | 42.7 | 5.3
21 | SGFPLLPSKRGVTA [YBL095W 165-178] | 100 | 4190 | 22 | 314 | 354
22 | AMPPTLPHRDWKDY [YGL153W 84-97] | 113 | 14600 | 39.4 | 25500 | 2620
